{"source": "patent US7378234B2", "about": "“Method for isolating hepatitis C virus peptides” (Intercell AG, priority 2002, dated 2008)", "molecules": {"B1": {"name": "MSTNPKPQRKTKRNTNRRPQDVKFPGGGQIVGGVYLLPRRGPRLGVRATRKTSERSQPRGRRQPIPK (peptide)", "peptide": "MSTNPKPQRKTKRNTNRRPQDVKFPGGGQIVGGVYLLPRRGPRLGVRATRKTSERSQPRGRRQPIPK"}}, "tested_on": "HLA-B*0702 transgenic mice", "experiment": "Vaccination of HLA-B*0702 transgenic mice (peptide + IC31), IFN-gamma ELISpot with spleen cells and CD8+ fraction", "type": "in vivo, mouse", "details": "for specific INF-γ producing T cells / HLA-B*0702 epitope in HLA-B*0702 transgenic mice (in words): peptide + IC31, whole spleen cells and CD8+ fraction", "experimental": "Mouse splenocyte ELIspot assay for single cell IFN-gamma release ELISpot plates (MAHA S4510, Millipore, Germany) were rinsed with PBS (200 μl/well), coated with anti-mouse IFN-gamma mAb (clone R46A2; 100 μl/well of 5 μg/ml in 0.1 M NaHCO3, pH 9.2-9.5) and incubated overnight at 4° C. Plates were washed four times with PBS/0.1% Tween 20 and incubated with PBS/1% BSA (200 μl/well) at room temperature for 2 h to block nonspecific binding. Spleen cells from vaccinated mice were prepared and plated at 1×10^6-3×10^5 cells/well and incubated overnight at 37° C./5% CO2 either in the presence of the immunizing antigen (peptide), control peptides or with medium alone. Subsequently, plates were washed four times and incubated with biotinylated anti-mouse IFN-gamma mAb (clone AN18.17.24, 100 μl/well of 2 μg/ml in PBS/1% BSA) for 2 h at 37° C. After washing, streptavidin-peroxidase (Roche Diagnostics, Vienna, Austria) was added ( 1/5000 in PBS, 100 μl/well) and plates were incubated at room temperature for 2 additional hours. Subsequently, substrate was added to the washed plates (100 μl/well of a mixture of 10 ml 100 mM Tris pH 7.5 supplemented with 200 μl of 40 mg/ml DAB stock containing 50 μl of 80 mg/ml NiCl2 stock and 5 μl of 30% H2O2). The reaction was stopped after 20-30 minutes by washing the plates with tap water. Dried plates were evaluated with an ELISpot reader (BIOREADER 2000, BioSys, Karben, Germany).\nGroups of 5 mice (HLA-A*0201-, HLA-DRB1*0401- and HLA-B*0702 transgenic mice, male, 8-14 weeks of age) were injected subcutaneous into the hind footpads with 100 μg of peptide +IC31 per mouse (50 μg per footpad). (PCT/EP01/12041, WO 02/32451 A1 and PCT/EP01/06433, WO 01/93905 A1; IC31 is a combination of the immunizer disclosed in WO 01/93905 and WO 02/32451). […]", "note": "“Also recorded” adds a separate entry of the source."}
{"molecule": "B1", "values": [{"measurement": "Immunogenicity, peptide-specific IFN-gamma-producing cells, B*0702", "setting": "HLA-B*0702 transgenic mice, splenocytes", "value": "+ (immunogenic (+, less than 100 peptide-specific cells among a million splenocytes))"}, {"measurement": "specific INF-γ producing T cells / HLA-B*0702 epitope in HLA-B*0702 transgenic mice (in words)", "value": "confirmed to contain human HLA-B*0702 epitopes; also recorded: HLA-B*0702 epitopes with T-cell activating capacity"}, {"measurement": "specific INF-γ producing T cells / HLA-B*0702 epitope in HLA-B*0702 transgenic mice (in words)", "setting": "listed as Ipep1506", "value": "significant interferon-gamma induction"}]}
